Square brackets hold non-standard residues; d marks the D form. Mpa = O=C(O)CCS
Legend:
[1] = Capillary electrophoresis, global charge of the peptide; format: physicochemical
Procedure: Capillary electrophoresis was performed to determine if this difference of configuration is due to the global charge of the peptide.

[2] = Advancing contact angle in PBS on peptide SAMs; format: physicochemical; details: average of four replicates
[3] = Surface concentration of the peptide monolayer on Au by SPR; format: physicochemical; details: peptide SAM on Au SPR sensor; average of four replicates
Procedure: The surface coverage for each monolayer was measured according to the change in response of the SPR sensor in PBS for the bare Au surface relative to the peptide-coated Au surface. To measure the formation of the monolayers, each SPR sensor was mounted on a custom-made SPR instrument in the Kretschmann configuration based on a dove prism with wavelength interrogation as previously described (Bolduc et al., 2009, supra). An Ocean Optics™ USB4000 fibre optic spectrometer ranging from 550 to 850 nm was used to acquire the spectral information processed with Matlab to obtain the SPR sensorgram. A 25 μL Teflon fluidic cell positioned on top of the SPR sensors was used to inject the solutions required to functionalize with the recognition element and detect the analytes of interest. The SPR response was acquired at a frequency of 1 Hz. The s-polarized reference was acquired in PBS buffer before monitoring a 5 minute baseline in p-polarization. PBS was replaced with crude bovine serum (76 mg/mL protein) for 20 minutes and rinsed with PBS for 5 minutes to quantify the amount of non-specifically adsorbed proteins.
The formation of monolayers on Au was measured to ensure that the peptide monolayers are indeed binding to the SPR sensor. The surface concentration of the monolayer provides a measurement of the number of molecules per square cm (i.e. the density of the monolayer at the surface). The surface concentration (Γ) of peptide-like self-assembled monolayers (SAMs) was characterized with the measurement of the SPR response before the formation of the SAMs and after their formation on the Au surface of the SPR sensor. The difference of SPR wavelength (λSPR) between these two measurements increases with the increasing surface concentration of the SAMs following the equation proposed by Jung et al. (Jung, L. S. et al. Langmuir 1998, 14: 5636): Γ=ρ(−0.5/d)ln(1−(ΔλSPRm^−1(ηSAM−ηPBS)^−1)) (eq. 1)

[4] = Secondary structure of peptide SAM by FT-IR (mid-IR amide band); format: physicochemical; details: peptide SAM on gold-coated SPR sensor
Procedure: Microscope slides (BK7, 22×22 mm) were coated with a 3 nm titanium (Ti) adhesion layer and a 50 nm gold (Au) layer (purity 99.99%, ESPI metals) using a Cressington™ 308R sputter coater. These Au-coated SPR slides were immersed for at least 16 h in a 5 mM peptide solution in absolute ethanol to form a well-ordered monolayer (Masson, J. F. et al. Talanta 2004, 64: 716). Four replicates were prepared for each 3-MPA-peptide. The SAM formed on the SPR sensors was extensively rinsed with DMF and ethanol and dried. The mid-IR spectrum of the peptide monolayers immobilized on the SPR sensors was measured in attenuated total reflectance (ATR). Mid-IR spectra were recorded using a BRUKER TENSOR® 27 equipped with a Ge-ATR module.
The 3D structure of the peptides as SAMs is observed with the amide band visible in FT-IR. Peptides adopting an α-helix configuration are showing a strong amide band at 1645 cm^−1, while peptides auto-assembling in the β-sheet configuration leads to a shifted amide at 1675 cm^−1. Every peptide structure investigated in Table 1 adopted an α-helix configuration except for 3-MPA-HHHDD-OH, as shown in FIG. 3.
Peptides adopt secondary conformation, which plays a significant role in their biological activity. For peptides in solution, the secondary conformation is measured with CD, while peptides immobilized on a surface can be analyzed with mid-IR spectroscopy of the amide bands (Duevel, R. V., Corn, R. M., 1992. Analytical Chemistry 64(4), 337-342; Sakurai, T. et al., 2006. Journal of Peptide Science 12(6), 396-402). As listed in Table II, the secondary structure of most peptides adopted an α-helical conformation, with the exception of 3-MPA-DSDSD-OH, which adopted an extended conformation. As noted above, most peptides in the form of 3-MPA-peptide-OH adopt an α-helical conformation. Generally, mid-IR and CD agreed in the determination of the structures on surfaces and in solution, with the exception of one peptide. […] No relationship between structure and nonspecific adsorption could be established.

[5] = target: T1, human dihydrofolate reductase (hDHFR) (Homo sapiens, UniProt P00374); experiment: Real-time UV/Vis monitoring of the enzymatic reaction of immobilized hDHFR; format: biochemical
T1 construct: made in house
T1 sequence (P00374 1-187): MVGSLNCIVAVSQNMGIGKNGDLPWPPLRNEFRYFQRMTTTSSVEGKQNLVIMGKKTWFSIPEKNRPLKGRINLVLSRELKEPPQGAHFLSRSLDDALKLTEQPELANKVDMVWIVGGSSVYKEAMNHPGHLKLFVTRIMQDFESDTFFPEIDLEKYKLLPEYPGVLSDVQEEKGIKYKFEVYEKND
Procedure: The peptidomimetic monolayer binding His-tagged biomolecules was exposed for a period of 15 min to a 50 μg/mL PBS solution of His-tagged hDHFR, then rinsed with PBS. The SPR sensor with His-tagged hDHFR was placed in a UV/Vis cuvette, similar to a method developed by Knoll et al. (Xu et al., 2005. Journal of the American Chemical Society 127(38), 13084-13085). His-tagged hDHFR was obtained as previously reported (Volpato et al., 2007 Journal of Molecular Biology 373, 599-611). A negative control, consisting of the peptidomimetic-modified SPR sensor without hDHFR was exposed to buffer and rinsed to verify that the observed change in absorbance was due to immobilized His-tagged hDHFR and not to the surface itself. The enzymatic reaction catalyzed by hDHFR was monitored by UV/Vis spectrometry. The SPR sensors were immersed in a solution of 100 μM NADPH (cofactor) and 100 μM dihydrofolate (DHF, substrate) in 10 mM Tris buffer, pH=8.0, for 1 hour. The activity of the enzyme was measured by following the time course of the absorption (ΔA(t)) at λ=340 nm due to consumption of NADPH and DHF, by subtracting the blank signal (Ablank(t)) and the initial absorbance of the solution (A(O)). The activity was confirmed for each sample of His-tagged hDHFR on the SPR sensor. 1 U of enzyme activity corresponds to conversion of 1 μmol substrate to product per min. Absorption spectra were recorded with a Cary 100 Bio UV/Vis spectrometer equipped with a liquid temperature control system running at 35° C. to be in the optimal condition for the enzymatic reaction to take place. After monitoring the activity, the SPR sensors were rinsed with buffer, 18.2 MΩ water and the His-tagged hDHFR was removed from the surface with a 0.5 M imidazole solution for 10 minutes. […]
In contrast with those results, immobilizing His-tagged hDHFR on the peptidomimetic monolayer allowed to retain the activity of the enzyme. This is observed by a consumption of the reactants (NADPH and DHF), decreasing the absorbance measured at λ=340 nm (FIG. 3). According to the absorption coefficient (Δ∈=12.8 mM^−1 cm^−1), the measured slope (5.7*10 Abs/min) corresponded to an activity of 4.4±0.8*10^−5 U. The specific activity of His-tagged hDHFR previously determined in presence of saturating reactants was 8.5 U/mg. Thus, the activity measured on the surface corresponded to 5±0.9 ng (n=4) of fully active hDHFR. […] The fraction of active enzyme on the surface cannot be determined, because the activity measured for the enzyme immobilized on the surface of the SPR is a factor of the activity of the enzyme (as for the enzyme in solution) and the time required for the products to diffuse in the light beam of the UV-Vis (not a factor for the enzyme in solution). […]

[6] = target: T1, human dihydrofolate reductase (hDHFR); details: previously determined in presence of saturating reactants; cited from earlier work

Molecule: 3-MPA-HHHHD-OH ([Mpa]HHHHD-OH; SMILES O=C(O)C[C@H](NC(=O)[C@H](Cc1c[nH]cn1)NC(=O)[C@H](Cc1c[nH]cn1)NC(=O)[C@H](Cc1c[nH]cn1)NC(=O)[C@H](Cc1c[nH]cn1)NC(=O)CCS)C(=O)O)
- Global charge of the peptide [1]: about −1

Molecule: 3-MPA-HHDDD-OH ([Mpa]HHDDD-OH; SMILES O=C(O)C[C@H](NC(=O)[C@H](CC(=O)O)NC(=O)[C@H](CC(=O)O)NC(=O)[C@H](Cc1c[nH]cn1)NC(=O)[C@H](Cc1c[nH]cn1)NC(=O)CCS)C(=O)O)
- Global charge of the peptide [1]: about −1

Molecule: 3-MPA-HHHDD-OH ([Mpa]HHHDD-OH; SMILES O=C(O)C[C@H](NC(=O)[C@H](CC(=O)O)NC(=O)[C@H](Cc1c[nH]cn1)NC(=O)[C@H](Cc1c[nH]cn1)NC(=O)[C@H](Cc1c[nH]cn1)NC(=O)CCS)C(=O)O)
- Contact angle in PBS θC_PBS [2]: 37.8 °
- Surface density ΔΓSAM [3]: 0.230 10^15 molecule/cm^2
- Global charge of the peptide [1]: about −1
- Secondary Structure FT-IR (SAM) [4]: β-sheet

B1: His-tagged hDHFR: His-tagged human dihydrofolate reductase immobilized on the SPR sensor (protein)
chain: T1 sequence (P00374 1-187)
modifications: left off: small tags and cut ends
notes: His-tagged human dihydrofolate reductase immobilized on the SPR sensor
- Enzyme activity after covalent immobilization ([5]; covalently immobilized to 16-MHA using EDC/NHS chemistry): inactive
- Average variation of the absorbance value over 60 minutes ([5]; four sensors regenerated with imidazole, n=8): −0.034±0.006
- Enzyme activity of immobilized enzyme ([5]; immobilized on peptidomimetic monolayer, absorbance at 340 nm): 4.4±0.8*10^−5 U
- Amount of fully active enzyme corresponding to the measured surface activity ([5]; n=4): 5 ± 0.9 ng
- Specific activity [6]: 8.5 U/mg
